These are literature values, as cited in PMC2744109.

“And” between values parts separate entries of the source, which are not always exact repeats. Identical values can stand only once.

Series [1] has as its target Factor VIII (Homo sapiens) (UniProt P00451).
Series [2] has as its target LRP1 CR5-CR7 (Homo sapiens) (UniProt Q07954).
Series [3] deals with LRP1 CR7-CR8 (Homo sapiens) (UniProt Q07954). The experiment in a line: ITC.

Chain of LRP1 (Q07954 20-4544): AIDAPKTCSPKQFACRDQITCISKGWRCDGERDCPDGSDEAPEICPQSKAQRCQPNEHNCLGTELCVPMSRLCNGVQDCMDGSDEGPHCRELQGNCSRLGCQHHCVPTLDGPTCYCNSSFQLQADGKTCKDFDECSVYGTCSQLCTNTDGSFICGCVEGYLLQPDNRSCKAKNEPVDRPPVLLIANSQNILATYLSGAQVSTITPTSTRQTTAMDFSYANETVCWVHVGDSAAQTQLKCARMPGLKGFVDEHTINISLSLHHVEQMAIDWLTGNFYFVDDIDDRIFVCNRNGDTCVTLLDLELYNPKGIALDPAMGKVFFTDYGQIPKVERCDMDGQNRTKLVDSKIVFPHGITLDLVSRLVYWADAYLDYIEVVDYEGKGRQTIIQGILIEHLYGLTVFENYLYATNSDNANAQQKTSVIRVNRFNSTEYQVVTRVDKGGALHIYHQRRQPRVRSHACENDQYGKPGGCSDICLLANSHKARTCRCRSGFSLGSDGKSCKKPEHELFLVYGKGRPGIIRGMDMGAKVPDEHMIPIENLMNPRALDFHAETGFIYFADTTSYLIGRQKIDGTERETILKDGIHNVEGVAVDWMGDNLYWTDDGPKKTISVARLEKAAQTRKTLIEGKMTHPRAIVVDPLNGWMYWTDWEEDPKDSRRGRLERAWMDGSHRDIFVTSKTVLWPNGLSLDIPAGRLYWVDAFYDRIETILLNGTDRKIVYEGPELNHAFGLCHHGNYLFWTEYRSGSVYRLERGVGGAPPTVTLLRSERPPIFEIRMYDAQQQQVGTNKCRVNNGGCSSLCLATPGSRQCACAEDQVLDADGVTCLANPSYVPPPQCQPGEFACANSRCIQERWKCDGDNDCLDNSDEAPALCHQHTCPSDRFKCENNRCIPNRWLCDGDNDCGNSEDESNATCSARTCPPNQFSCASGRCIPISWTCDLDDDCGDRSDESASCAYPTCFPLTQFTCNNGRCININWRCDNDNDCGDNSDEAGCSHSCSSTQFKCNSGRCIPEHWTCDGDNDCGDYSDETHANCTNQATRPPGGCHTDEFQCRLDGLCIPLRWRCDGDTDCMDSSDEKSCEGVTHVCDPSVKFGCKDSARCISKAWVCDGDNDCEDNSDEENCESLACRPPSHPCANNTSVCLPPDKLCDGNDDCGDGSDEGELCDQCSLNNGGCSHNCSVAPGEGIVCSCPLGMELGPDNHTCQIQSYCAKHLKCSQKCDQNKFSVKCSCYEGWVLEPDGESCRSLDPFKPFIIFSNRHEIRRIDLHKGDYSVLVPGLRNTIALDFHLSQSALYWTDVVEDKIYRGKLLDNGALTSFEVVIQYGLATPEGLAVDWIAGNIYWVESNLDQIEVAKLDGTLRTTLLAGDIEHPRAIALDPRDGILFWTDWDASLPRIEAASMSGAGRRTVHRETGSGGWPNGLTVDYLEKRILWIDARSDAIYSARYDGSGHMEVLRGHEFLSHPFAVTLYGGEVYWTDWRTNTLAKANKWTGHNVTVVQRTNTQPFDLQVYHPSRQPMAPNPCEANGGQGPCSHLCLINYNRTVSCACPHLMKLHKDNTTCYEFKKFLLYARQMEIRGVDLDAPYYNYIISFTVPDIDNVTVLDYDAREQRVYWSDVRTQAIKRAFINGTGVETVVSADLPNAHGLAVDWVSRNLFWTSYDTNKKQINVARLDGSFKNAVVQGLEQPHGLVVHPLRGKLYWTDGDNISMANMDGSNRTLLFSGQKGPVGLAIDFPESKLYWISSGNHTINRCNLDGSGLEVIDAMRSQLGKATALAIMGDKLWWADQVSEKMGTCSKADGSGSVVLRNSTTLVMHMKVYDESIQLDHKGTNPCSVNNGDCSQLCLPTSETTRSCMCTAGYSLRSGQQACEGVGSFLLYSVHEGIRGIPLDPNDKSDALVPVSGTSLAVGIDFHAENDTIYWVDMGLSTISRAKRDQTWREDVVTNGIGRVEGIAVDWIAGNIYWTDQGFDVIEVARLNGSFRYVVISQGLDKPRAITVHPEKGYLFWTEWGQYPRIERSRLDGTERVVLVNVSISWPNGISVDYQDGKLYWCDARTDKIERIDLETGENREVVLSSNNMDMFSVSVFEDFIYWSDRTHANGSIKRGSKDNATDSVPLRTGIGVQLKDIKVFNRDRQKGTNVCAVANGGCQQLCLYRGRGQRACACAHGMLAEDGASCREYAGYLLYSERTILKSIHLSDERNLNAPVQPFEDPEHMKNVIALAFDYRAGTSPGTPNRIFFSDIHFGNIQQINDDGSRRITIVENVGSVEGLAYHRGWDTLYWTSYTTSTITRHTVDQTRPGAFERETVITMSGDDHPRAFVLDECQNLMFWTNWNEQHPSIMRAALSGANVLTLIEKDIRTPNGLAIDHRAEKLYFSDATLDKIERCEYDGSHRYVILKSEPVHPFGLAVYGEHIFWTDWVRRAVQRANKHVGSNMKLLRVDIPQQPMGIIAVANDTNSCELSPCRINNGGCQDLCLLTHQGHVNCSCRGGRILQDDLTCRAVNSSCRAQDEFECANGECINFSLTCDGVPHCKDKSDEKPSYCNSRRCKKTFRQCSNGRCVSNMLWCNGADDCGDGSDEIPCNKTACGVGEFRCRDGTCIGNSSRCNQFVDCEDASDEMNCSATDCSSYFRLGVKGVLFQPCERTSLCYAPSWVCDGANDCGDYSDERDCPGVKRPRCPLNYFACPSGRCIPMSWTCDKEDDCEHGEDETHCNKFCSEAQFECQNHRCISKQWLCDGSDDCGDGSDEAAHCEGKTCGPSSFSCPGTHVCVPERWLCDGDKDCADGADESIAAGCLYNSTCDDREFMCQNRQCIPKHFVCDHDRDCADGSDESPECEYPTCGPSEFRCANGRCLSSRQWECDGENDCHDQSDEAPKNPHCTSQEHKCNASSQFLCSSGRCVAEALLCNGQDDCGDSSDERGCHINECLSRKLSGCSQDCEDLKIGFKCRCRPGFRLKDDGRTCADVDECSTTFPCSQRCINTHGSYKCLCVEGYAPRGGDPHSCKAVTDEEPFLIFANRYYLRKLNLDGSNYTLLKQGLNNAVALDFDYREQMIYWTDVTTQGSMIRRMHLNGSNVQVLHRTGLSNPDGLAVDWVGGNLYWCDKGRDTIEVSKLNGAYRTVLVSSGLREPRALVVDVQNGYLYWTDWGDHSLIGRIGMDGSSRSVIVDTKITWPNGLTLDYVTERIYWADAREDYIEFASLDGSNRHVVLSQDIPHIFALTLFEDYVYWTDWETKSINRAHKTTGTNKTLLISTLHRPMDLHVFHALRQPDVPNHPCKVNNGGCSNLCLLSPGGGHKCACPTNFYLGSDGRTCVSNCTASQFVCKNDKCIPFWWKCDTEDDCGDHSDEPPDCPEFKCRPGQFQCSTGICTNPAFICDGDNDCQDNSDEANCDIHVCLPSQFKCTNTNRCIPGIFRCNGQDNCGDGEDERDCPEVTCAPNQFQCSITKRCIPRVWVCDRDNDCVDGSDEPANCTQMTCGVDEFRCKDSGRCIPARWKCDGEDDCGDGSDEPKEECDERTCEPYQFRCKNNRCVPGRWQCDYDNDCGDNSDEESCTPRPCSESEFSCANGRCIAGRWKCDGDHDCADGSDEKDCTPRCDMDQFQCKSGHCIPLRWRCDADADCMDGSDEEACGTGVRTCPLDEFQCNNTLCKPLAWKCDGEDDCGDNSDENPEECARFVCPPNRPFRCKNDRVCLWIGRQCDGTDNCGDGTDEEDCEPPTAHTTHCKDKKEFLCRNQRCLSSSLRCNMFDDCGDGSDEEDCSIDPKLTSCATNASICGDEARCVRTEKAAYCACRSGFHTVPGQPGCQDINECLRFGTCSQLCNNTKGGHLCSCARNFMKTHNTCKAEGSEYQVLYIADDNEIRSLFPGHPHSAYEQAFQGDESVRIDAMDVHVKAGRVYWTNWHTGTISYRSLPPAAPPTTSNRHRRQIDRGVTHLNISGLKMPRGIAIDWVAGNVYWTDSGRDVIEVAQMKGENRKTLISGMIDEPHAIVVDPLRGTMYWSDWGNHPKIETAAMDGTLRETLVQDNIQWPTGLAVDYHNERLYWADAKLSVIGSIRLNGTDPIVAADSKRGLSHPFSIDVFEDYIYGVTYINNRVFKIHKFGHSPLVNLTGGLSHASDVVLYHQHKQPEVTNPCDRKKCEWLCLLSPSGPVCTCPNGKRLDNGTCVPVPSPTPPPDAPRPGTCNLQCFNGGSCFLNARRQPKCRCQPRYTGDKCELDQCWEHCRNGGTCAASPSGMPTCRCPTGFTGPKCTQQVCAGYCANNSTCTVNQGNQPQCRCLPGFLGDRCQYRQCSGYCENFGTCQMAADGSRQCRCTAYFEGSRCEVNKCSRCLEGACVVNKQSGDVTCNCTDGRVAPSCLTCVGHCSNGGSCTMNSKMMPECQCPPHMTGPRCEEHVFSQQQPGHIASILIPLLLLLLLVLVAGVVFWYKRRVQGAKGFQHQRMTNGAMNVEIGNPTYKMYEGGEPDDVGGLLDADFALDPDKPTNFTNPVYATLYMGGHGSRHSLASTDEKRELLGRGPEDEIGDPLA
Chain of UniProt P00451 (P00451 760-1332): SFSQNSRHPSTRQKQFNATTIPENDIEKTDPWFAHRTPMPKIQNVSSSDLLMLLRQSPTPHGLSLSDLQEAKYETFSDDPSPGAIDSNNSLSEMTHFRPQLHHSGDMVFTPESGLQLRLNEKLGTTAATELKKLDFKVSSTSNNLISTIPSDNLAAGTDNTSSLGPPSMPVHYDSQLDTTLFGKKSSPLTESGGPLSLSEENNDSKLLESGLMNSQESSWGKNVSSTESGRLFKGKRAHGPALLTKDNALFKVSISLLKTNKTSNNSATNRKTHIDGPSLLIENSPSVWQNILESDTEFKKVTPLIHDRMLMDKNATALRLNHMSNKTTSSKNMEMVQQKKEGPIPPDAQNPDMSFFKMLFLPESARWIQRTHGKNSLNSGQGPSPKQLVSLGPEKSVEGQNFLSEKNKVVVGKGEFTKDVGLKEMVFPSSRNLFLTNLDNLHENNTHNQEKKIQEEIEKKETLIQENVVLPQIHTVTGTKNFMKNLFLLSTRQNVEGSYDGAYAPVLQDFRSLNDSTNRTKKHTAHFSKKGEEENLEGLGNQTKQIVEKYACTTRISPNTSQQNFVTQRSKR

As usually defined, the Kd is a measure of binding affinity in units of concentration. As to LRP1 (from UniProt Q07954), the Kd in series [1] is 116 nM and 60 nM. RAP (from UniProt P30533): the values for the Kd in series [2] and in series [3] were 1.6 nM and 1000 nM, respectively. RAP D3 (from UniProt P30533): the Kd in series [3] was 1000 nM.
